Measured values reported in patent publication US20180369341A1.

Legend:
FcRn [1] = assay: FcRn binding assay (method not described); Aggregation Study, albiglutide in NaCl, octanoate and cysteine formulation, stored at 2-8°C for 2 months
FcRn [2] = assay: FcRn binding assay (method not described); Aggregation Study, albiglutide in NaCl, octanoate and cysteine formulation, stored at 30°C for 2 months
[3] = biological target: human GLP-1 receptor (human) (UniProt P43220); assay: cell-based or functional assay
Sequence of UniProt P43220 (P43220 24-463): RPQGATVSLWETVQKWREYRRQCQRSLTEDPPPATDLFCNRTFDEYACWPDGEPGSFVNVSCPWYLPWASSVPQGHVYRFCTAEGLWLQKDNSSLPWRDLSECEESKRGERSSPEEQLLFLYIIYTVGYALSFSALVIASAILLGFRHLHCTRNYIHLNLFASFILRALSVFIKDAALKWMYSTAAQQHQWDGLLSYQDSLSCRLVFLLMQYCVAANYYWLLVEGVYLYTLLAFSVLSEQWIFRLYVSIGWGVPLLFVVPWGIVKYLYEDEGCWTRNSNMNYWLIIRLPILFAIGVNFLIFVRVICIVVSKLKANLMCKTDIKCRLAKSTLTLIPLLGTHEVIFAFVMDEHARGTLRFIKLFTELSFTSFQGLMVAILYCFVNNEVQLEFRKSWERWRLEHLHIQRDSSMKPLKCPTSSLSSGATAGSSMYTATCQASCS

FcRn [4] = assay: FcRn binding assay (method not described); Aggregation Study, albiglutide in NaCl + cysteine formulation, stored at 2-8°C for 2 months
FcRn [5] = assay: FcRn binding assay (method not described); Aggregation Study, albiglutide in NaCl + cysteine formulation, stored at 30°C for 2 months

- decrease in FcRn binding (FcRn [1]): 16%
- decrease in FcRn binding (FcRn [2]): 23%
- Bioassay potency; Aggregation Study, all formulations, 2 months 30°C (lower end) [3]: 130%
- Bioassay potency; Aggregation Study, all formulations, 2 months 30°C (upper end) [3]: 160%
- Bioassay potency; PFS Study, Variations A and B, 1 month 40°C [3]: 180%
- Bioassay potency; PFS Study, all variations, 3 months 30°C [3]: 130%
- decrease in FcRn binding (FcRn [4]): 6%
- decrease in FcRn binding (FcRn [5]): 23%
Substance: albiglutide (from UniProt P02768 25-609) (ligand)
